Biological target: T1, recombinant murine ACE2 (angiotensin-converting enzyme 2), extracellular domain (murine), Q8R0I0
T1 chain: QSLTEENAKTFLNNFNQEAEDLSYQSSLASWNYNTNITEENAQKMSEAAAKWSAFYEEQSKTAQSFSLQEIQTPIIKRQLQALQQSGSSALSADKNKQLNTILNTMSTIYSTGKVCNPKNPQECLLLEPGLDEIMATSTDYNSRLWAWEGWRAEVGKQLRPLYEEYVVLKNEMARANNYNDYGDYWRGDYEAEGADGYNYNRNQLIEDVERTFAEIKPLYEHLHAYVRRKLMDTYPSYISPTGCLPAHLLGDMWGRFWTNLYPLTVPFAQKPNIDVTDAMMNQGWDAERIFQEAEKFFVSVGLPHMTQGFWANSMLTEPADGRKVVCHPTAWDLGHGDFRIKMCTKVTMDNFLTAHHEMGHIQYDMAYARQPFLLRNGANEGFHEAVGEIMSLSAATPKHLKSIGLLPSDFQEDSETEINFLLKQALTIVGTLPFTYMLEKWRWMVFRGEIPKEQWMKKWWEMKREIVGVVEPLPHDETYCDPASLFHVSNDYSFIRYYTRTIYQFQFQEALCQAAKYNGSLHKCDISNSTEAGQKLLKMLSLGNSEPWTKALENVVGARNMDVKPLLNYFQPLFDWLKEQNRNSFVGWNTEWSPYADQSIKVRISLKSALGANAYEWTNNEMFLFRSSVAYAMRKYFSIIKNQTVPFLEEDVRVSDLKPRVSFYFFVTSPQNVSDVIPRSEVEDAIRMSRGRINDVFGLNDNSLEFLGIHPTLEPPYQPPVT
Test: native gel or EMSA; native PAGE, 2 ug protein on a precast native 3-12% gradient gel, Bis/Tris-Tricine buffers, 150 V for 80 min, Coomassie stain; single band at approximately 170 kDa; monomer to dimer
Settings: remark: other sources report otherwise

- stoichiometry N: 2
B1: recombinant murine ACE2 (angiotensin-converting enzyme 2), extracellular domain, Q8R0I0 18-740 (enzyme)
chain: T1 chain

From publication PMC3299299, “Recombinant Expression and Characterization of Human and Murine ACE2: Species-Specific Activation of the Alternative Renin-Angiotensin-System” (International Journal of Hypertension, 2012)
